Laboratory results published in US20180335435A1 (METAFORA BIOSYSTEMS, published 2018).

B1: BLV.RBD fused to a rabbit Fc (rFc) tag, expressed from pCSI expression vector (Fc fusion)
chain: WRCSLSLGNQQWMTTYNQEAKFFISIDQILEAHNQSPFCPRSPRYTLDFVNGYPKIYWPPPQGRRRFGARAMVTYDCEPRCPYVGADHFDCPHWDNASQADQGSFYVNHQTLFLHLKQCHGIFTLTWEIWGYDPLITFSLHKIPAPPQGSAPSTCSKPTCPPPELLGGPSVFIFPPKPKDTLMISRTPEVTCVVVDVSQDDPEVQFTWYINNEQVRTARPPLREQQFDCTIRVVSTLPIAHQDWLRGKEFKCKVHNKALPAPIEKTISKARGQPLEPKVYTMGPPREELSSRSVSLTCMINGFYPSDISVEWEKNGKAEDNYKTTPAVLDSDGSYFLYSKLSVPTSEWQRGDVFTCSVMHEALHNHYTQKSISRSPGK
notes: also called pCSI BLV.RBD rFc
B2: BLV.RBD-mFc ligand (receptor-binding domain of the bovine leukemia virus envelope glycoprotein tagged in frame with the constant fragment of mouse … (Fc fusion)
chain: WRCSLSLGNQQWMTTYNQEAKFFISIDQILEAHNQSPFCPRSPRYTLDFVNGYPKIYWPPPQGRRRFGARAMVTYDCEPRCPYVGADHFDCPHWDNASQADQGSFYVNHQTLFLHLKQCHGIFTLTWEIWGYDPLITFSLHKIPAPPQGSVDVPRDCGCKPCICTVPEVSSVFIFPPKPKDVLTITLTPKVTCVVVDISKDDPEVQFSWFVDDVEVHTAQTQPREEQFNSTFRSVSELPIMHQDWLNGKEFKCRVNSAAFPAPIEKTISKTKGRPKAPQVYTIPPPKEQMAKDKVSLTCMITDFFPEDITVEWQWNGQPAENYKNTQPIMDTDGSYFVYSKLNVQKSNWEAGNTFTCSVLHEGLHNHHTEKSLSHSPGK
notes: Used as a 1/10 dilution, detected with anti-mouse IgG1-Alexa Fluor 488; also called BLV.RBD ligand; BLV.RBD tagged with mouse Fc (mFc)

Assays:
[1] = target: T1, human CAT1 (cationic amino acid transporter-1, SLC7A1) (human, UniProt P30825 1-629); experiment: radiolabeled arginine uptake in HEK293T cells expressing BLV.RBD rFc
T1 construct: Endogenous on HEK293T cells or expressed from a human CAT1 vector in QT6, HEK293T or CHO cells; also called CAT1/SLC7A1; Hu-CAT1
T1 sequence (P30825 whole entry): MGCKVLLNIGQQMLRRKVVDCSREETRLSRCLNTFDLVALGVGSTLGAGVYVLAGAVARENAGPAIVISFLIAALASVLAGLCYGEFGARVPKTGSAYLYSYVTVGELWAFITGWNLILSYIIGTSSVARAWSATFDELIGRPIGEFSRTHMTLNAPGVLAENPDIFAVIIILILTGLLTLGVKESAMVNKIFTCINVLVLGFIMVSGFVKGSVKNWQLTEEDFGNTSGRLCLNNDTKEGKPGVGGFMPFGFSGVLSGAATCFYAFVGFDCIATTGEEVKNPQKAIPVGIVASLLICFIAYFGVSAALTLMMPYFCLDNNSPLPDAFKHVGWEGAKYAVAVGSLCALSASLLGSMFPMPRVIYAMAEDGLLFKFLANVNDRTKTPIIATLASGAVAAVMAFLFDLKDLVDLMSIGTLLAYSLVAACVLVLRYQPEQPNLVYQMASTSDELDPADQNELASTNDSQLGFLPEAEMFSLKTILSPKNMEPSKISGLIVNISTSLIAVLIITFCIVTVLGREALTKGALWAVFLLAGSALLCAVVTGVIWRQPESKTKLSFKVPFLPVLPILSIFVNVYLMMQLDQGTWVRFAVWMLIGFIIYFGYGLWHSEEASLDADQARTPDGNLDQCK

[2] = target: T1, human CAT1 (cationic amino acid …)

Binder | binding result [1] | fold increase of binding on CAT1 overexpression against empty vector [2] [fold]
B1 | binds | 
B2 |  | 3
